By mortality is commonly meant the percentage killed.

For the experiment, the system named is ischemic stroke (middle cerebral artery occlusion) in rats. Nature of the experiment: Focal ischemia (MCAO) model of stroke. Type of experiment: in vivo, rat. As to conditions: rTPA 6 hours after the stroke, without subsequent bryostatin; rats. As to the method: A transient animal model of focal ischemia was used for these experiments. The middle cerebral artery (MCA) was surgically dissected and occluded in anesthetized rats by ligature, followed by reperfusion after a defined period (about 2 hours). Animal models transient ischemia via occlusion of the MCA (MCAO) are well-known and described in, e.g., Sicard and Fisher, Exp. & Transl. Stroke Med. (2009), vol. 1, pp. 1-7.

B1: rTPA: recombinant tissue plasminogen activator, thrombolytic serine protease (protein, UniProt P00750 36-562, looked up)
Tissue-type plasminogen …: SYQVICRDEKTQMIYQQHQSWLRPVLRSNRVEYCWCNSGRAQCHSVPVKSCSEPRCFNGGTCQQALYFSDFVCQCPEGFAGKCCEIDTRATCYEDQGISYRGTWSTAESGAECTNWNSSALAQKPYSGRRPDAIRLGLGNHNYCRNPDRDSKPWCYVFKAGKYSSEFCSTPACSEGNSDCYFGNGSAYRGTHSLTESGASCLPWNSMILIGKVYTAQNPSAQALGLGKHNYCRNPDGDAKPWCHVLKNRRLTWEYCDVPSCSTCGLRQYSQPQFRIKGGLFADIASHPWQAAIFAKHRRSPGERFLCGGILISSCWILSAAHCFQERFPPHHLTVILGRTYRVVPGEEEQKFEVEKYIVHKEFDDDTYDNDIALLQLKSDSSRCAQESSVVRTVCLPPADLQLPDWTECELSGYGKHEALSPFYSERLKEAHVRLYPSSRCTSQHLLNRTVTDNMLCAGDTRSGGPQANLHDACQGDSGGPLVCLNDGRMTLVGIISWGLGCGQKDVPGVYTKVTNYLDWIRDNMRP
The molecule B1 gave a mortality of 44%.

The record behind these values is US9889183B2, “PKC activators and anticoagulant in regimen for treating stroke” (BLANCHETTE ROCKEFELLER NEUROSCIENCES INSTITUTE, priority 2010, dated 2018).
